# Reference: US20050208482A1, “Tat-based immunomodulatory compositions and methods for their discovery and use” (priority 2004, published 2005)
# How the values were obtained:
# [1] = test system: monocytes committed to the dendritic cell (DC) lineage; experiment: Tat induction of CD86 on monocytes committed to the DC lineage (FACScan); assay type: cell-based, Human; conditions: committed DCs cultured overnight; Tat 50 nM, LPS 100 ng/mL; Control MFI 9
# Procedure: An additional embodiment of the present invention is that Tat induces monocytes committed to the dendritic cell (DC) lineage to enlarge into activated, CD86+DC APCs (FIG. 1). Human monocytes enriched from PBMCs by Percoll density gradient separation and adherance to anti-CD14 coated magnetic beads (Dynabeads M-450, Dynal Biotech) were committed to differentiate into DCs through five days of culture in GM-CSF (100 ng/mL) and IL-4 (100 ng/mL). Committed DCs were cultured overnight either in medium alone (Control), LPS (100 ng/mL), or Tat (50 nM), after which they were stained with an anti-CD86 antibody (BD Pharmingen) and analyzed by FACScan for CD86 induction (left panel) or generalized activation (right panel, enlargement into box R2, shown for Tat-stimulated cells). The MFIs for CD86 expression are 9 (Control), 30 (LPS), and 187 (Tat), CD86 being a specific determinant of DC activation.
# Human monocytes = experiment: Tat activation of monocytes/macrophages, Fas ligand (FasL) induction by flow cytometry; assay type: cell-based
# Procedure: Tat activation of monocytes is dose-dependent and saturatable (FIG. 3). Human monocytes were cultured in increasing concentrations of recombinant Tat for six days at which time they were assayed for Fas ligand (FasL) induction as a measure of activation by using flow cytometry (FACScan, Becton Dickinson) to quantitate the intensity of staining (mean fluorescence index (MFI)) with an anti-Fas ligand monoclonal antibody (Nok 1, BD Pharmingen).
# T cells = experiment: T cell activation by Tat; assay type: cell-based; conditions: 50 nM Tat
# antibody response to p24 = experiment: Suppression of humoral immune response to HIV-1 p24 in immunized mice (ELISA); assay type: in vivo; conditions: 5 μg p24 + 5 μg Tat in complete Freund's adjuvant s.c.
# Procedure: Tat suppresses the antigen-specific humoral immune response to HIV-1 p24 (FIG. 4). At week 0, mice (4 in each group) were immunized with 5 μg recombinant p24 protein (Chiron, Emeryville, Calif.) and either 5 μg recombinant Tat protein (PT) or 5 μg recombinant ox-Tat* protein (Ag) mixed in 100 μL complete Freund's adjuvant and administered subcutaneously in the flank. Following immunization, sera were collected every other week for 10 weeks and assayed for a specific antibody response to p24 by commercially available ELISA (Abbott Laboratories, Abbott Park, Ill.). […] This response was maintained for at least 6 weeks. The antibody titers at 6 weeks are approximately ten times greater than at week 2 due to maturation of the immune response.
# Human PBMCs = assay type: cell-based
# CD4+T cells = experiment: Direct apoptosis of CD4+ T cells by Tat; assay type: cell-based
Molecule,MFI for CD86 expression [1],concentration of Tat that triggers the effect on the macrophages (Human monocytes; FasL-inducing macrophage effect),"plateau stimulatory concentration for APCs (Human monocytes; six days culture, FasL MFI, higher concentrations did not increase MFI)",T cell activation (T cells),duration for which suppression of p24 antibody response was maintained (antibody response to p24),p24 antibody titer at 2 weeks (antibody response to p24; compared with ox-Tat* control),proliferation (stimulation index) relative to antigen treatment alone (Human PBMCs),"reversal of Tat suppression, proliferation as % of control (Human PBMCs; with further addition of anti-IL-10 and anti-IL-6 antibodies to the cultures)",concentration required to initiate direct apoptosis of CD4+T cells (CD4+T cells)
"lipopolysaccharide [LPS, reference compound]",30,,,,,,,,
"Tat: conventional immunosuppressive HIV-1 trans-activator of transcription protein, recombinant (SEQ ID NO. 2) (protein, Human immunodeficiency virus type 1) MEPVDPRLEPWKHPGSQPKTACTTCYCKKCCFHCQVCFTKKALGISYGRKKRRQRRRAPEDSQTHQVSPPKQPAPQFRGDPTGPKESKKKVERETETHPVD",187,500 pM,50 nM,could not be activated,at least 6 weeks,completely suppressed,141%,> 95 % of control,approximately 500 nM
